Laboratory results as given in patent publication US20190338026A1 (University of Texas, published 2019).

T1: LAIR1 on LAIR1 reporter cells (human, UniProt Q6GTX8 22-165, limits assumed)
T1 chain: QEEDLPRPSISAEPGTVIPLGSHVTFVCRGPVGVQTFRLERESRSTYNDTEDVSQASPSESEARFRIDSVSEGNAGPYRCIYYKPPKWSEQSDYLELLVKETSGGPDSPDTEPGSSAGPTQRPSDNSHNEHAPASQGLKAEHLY

T2: human LAIR1 extracellular domain (ECD) protein with 6 HIS tag at the C-terminus (human, UniProt Q6GTX8 22-165)
T2 construct: Produced recombinantly in HEK293 cells; the whole entry is named here; also called LAIR1 ECD; LAIR1-ECD
T2 chain: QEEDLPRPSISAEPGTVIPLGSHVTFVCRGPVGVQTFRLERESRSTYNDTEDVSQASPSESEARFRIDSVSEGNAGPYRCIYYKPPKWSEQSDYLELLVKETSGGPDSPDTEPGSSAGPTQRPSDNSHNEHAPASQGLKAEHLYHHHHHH

T3: recombinant LAIR1 (human, UniProt Q6GTX8 22-165, limits assumed)
T3 construct: also called LAIR1 (Octet analyte)
T3 chain: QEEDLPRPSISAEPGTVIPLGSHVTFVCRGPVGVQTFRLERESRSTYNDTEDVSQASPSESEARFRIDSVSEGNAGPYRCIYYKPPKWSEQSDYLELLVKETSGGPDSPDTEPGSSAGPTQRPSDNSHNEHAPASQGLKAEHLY

B1: LA-94 (antibody, V domains shown)
VH: EQSLEESEGRLVTPGTPLTLTCTASGFSLSGYHMSWVRQAPGKGLEYIGYISERGTSYYANWAKGRFTVSKSSSSTVVLSIISPTAEDTATYFCARYGGGDSAFILWGPGTLVTISS
VL: ELVMTQTPASVSGPVGGTVTIKCQASHNIDNSLAWYQQKPGQPPKLLIYKASTLASGVSSRFKGSGSGTEYTLTISDLECADAATYFCQGTIGLNSGCAFGGGTEVEIK
notes: Rabbit monoclonal IgG; Called an agonist antibody; also called mAb LA-94; agonist Ab LA-94
B2: LA-259-2 (antibody, V domains shown)
VH: QSVKESGGRLVTPGTPLTLTCTASGFSLYKYNIQWVRQAPGKGLEYIGASTYAGYTYYASWAKGRVTISRTSTTVDLKMTSPTTEDTATYFCARHIDGDYSGYALWGPGTLVTISS
VL: ELVMTQTPASVSAAVGGTVTIKCQASQSIGTWFAWYQQKPGQSPKLLIYGPSKLASGVPPRFKGSGSGTEFTLTISDLECDDAATYYCQSNGGSISNGWGSFGGGTEVVVK
notes: Rabbit monoclonal IgG
B3: LA-121 (antibody, V domains shown)
VH: EQSVEESGGRLVTPGTPLTLTCTASGFSLYKYNIQWVRQAPGKGLEYIGASTYAGYTYYASWAIGRVTISRTSTTVDLKMTSPTTEDTATYFCARHIDGDYSGYALWGPGTLVTISS
VL: ELDLTQTPASVSAAVGGTVTIKCQASQSIDTWFGWYQQKPGQSPKLLIYGASKLASGVPPRFKGSGSGTEFTLTISDLECADAATYYCQNTYYGVRYLGGAFGGGTEVEIK
notes: Rabbit monoclonal IgG
B4: LA-192 (antibody, V domains shown)
VH: EQSLEESGGRLVTPGTPLTLTCTASGFSLSSYYMTWVRQAPGKGLEWIGYMHTGGGVVYASWATGRFTISRTSTTVDLKITSPTTEDTATYFCARSHAGYSTINRLDLWGVGTLVTISS
VL: ELDLTQTPSSVSAAVGGTVTISCQSSPSVYTNNLSWFQQKPGQPPKLLIYDASKLESGVPSRFRGSGSGTQFTLTISDVQCDDAATYYCAGAYLSDSDTTFGGGTELEIK
notes: Rabbit monoclonal IgG; Called an agonist antibody
B5: LA-258-2 (antibody, V domains shown)
VH: QSVKESGGDLVKPEGSLTLTCKASGFSFSNSYYMCWVRQAPGKGLEWIACIYTGSTSGTYYASWVNGRFTISKTPSTTVTLQMTSLTVADTATYFCSRKLTNFNGAYLDLWGPGTLVTISS
VL: ELVMTQTPSSVEAAVGGTVTIKCQASQSIYSYLAWYQQKPGQPPKVLIYKASTLASGVPSRFKGSGSGTDFTLTISDLECADAATYYCQANNGGSDNNFGGGTEVEIK
notes: Rabbit monoclonal IgG
B6: LA-258-3 (antibody, V domains shown)
VH: QSVKESGGDLVKPEGSLTLTCKASGFSFSNSYYMCWVRQAPGKGLEWIACIYTGSTSGTYYASWVNGRFTISKTPSTTVTLQMTSLTVADTATYFCSRKLTNFNGAYLDLWGPGTLVTISS
VL: ELVLTQTPASVEAAVGGTVTINCQASQSISNLLAWYQQKPGQPPKVLIYKASTLASGVPSRFKGSGSGTDFTLTISDLECADAATYYCQANNGGSDNNFGGGTEVVVKA
notes: Rabbit monoclonal IgG
B7: LA-219 (antibody, V domains shown)
VH: EQSVESGGGLITPGGTLTLTCTASGFTVTRYYMNWVRQAPGKGLEWIGYIYASSKTYYANWAKGRFTISKTSTTVDLKMTSLTAEDTGTYFCARGGVGNSGLNLDLWGPGTLVTISS
VL: ELDMTQTPASVSEPVGGTVTIKCQASQSIGSWLAWYQQKPGQPPKLLIYQASRLASGVSSRFGGSGSGTEFTLTISDLECADAATYYCQQAEYSGDVENTFGGGTEVVVK
notes: Rabbit monoclonal IgG; Called a potential antagonist antibody
B8: LA-235 (antibody, V domains shown)
VH: SSSVEESEGRLVTPGTPLTLTCTVSGFSLSSYTMGWVRQAPGEGLEWIGTTSNDGSTYYASWAKGRFTISKTSSTTVDLMMTSLTTEDTATYFCVRGTNIRSLWGPGTLVTISS
VL: ELVMTQTPASVEAAVGGTVTIKCQASQSIGSNLAWYQQKPGQPPKLLIYLASALASGVSSRFKGSGSGSDFTLTISDLECADAATYYCQCTYGSSNNNNYGDPFGGGTEVEIK
notes: Rabbit monoclonal IgG; Called an antagonist antibody

Columns and labels:
[1] = molecular target: T1, LAIR1 on LAIR1 reporter cells
[2] = molecular target: T1, LAIR1 on LAIR1 reporter cells
[3] = molecular target: T2, human LAIR1 extracellular domain (ECD) …; test: ELISA, LAIR1 ECD coated
Experimental: (§1) The inventors then used a concentration titration (0-10 μg/ml) by ELISA to determine the LAIR1 monoclonal antibody (mAbs) binding to human LAIR1 ECD. […] For FIGS. 2-39, X axis indicates the antibody concentrations and Y-axis is binding signals, measured as OD (450 nm). To perform the ELISA assay, LAIR1 ECD recombinant protein was coated on high absorption 96-well plates. Serial diluted (3-fold) LAIR1 mAb was added to the coated/blocked plates and detected using goat anti-rabbit F(ab′)2 conjugated HRP as secondary antibody. All assays were repeated 3 times and the titration curves were fitted using 4-parameter fitting curve using the GraphPad software for EC₅₀ estimation.
(§2) Serial dilutions of the LAIR1 monoclonal antibodies (IgGs or scFvs fragments), starting from […] and 3-fold titration down for 12 steps, were added to the 96-well plate for binding by incubating 45 minutes at 37° C. with a cover on the assay plate. Then the plates were washed with PBS containing Tween 20 (0.05% concentration) for 3 times and PBS one time. […] Detection was conducted by adding HRP substrate, TMB (ThermoFisher) for 10 minutes, and stopped by adding 50 μl/well of 2N H2504. The plates were read for absorbance at 450 nm using a plate reader (SpectraMax M4, Molecular Devices). Data were collected and graphed using a 4-parameter fitting curve with GrapPad Prism 7 software for EC₅₀ calculation.

[4] = molecular target: T1, LAIR1 on LAIR1 reporter cells; test: cell-based or functional assay
[5] = molecular target: T1, LAIR1 on LAIR1 reporter cells; test: cell-based or functional assay
[6] = molecular target: T1, LAIR1 on LAIR1 reporter cells; test: cell-based or functional assay
[7] = molecular target: T2, human LAIR1 extracellular domain (ECD) …; test: ELISA, LAIR1 ECD coated, mAb titrated, anti-rabbit HRP
Experimental: as §1, §2

[8] = molecular target: T3, recombinant LAIR1; test: BLI (Octet), mAb on protein A sensor, recombinant LAIR1 0.1-200 nM, 1:1 fit
Experimental: To perform the assay, antibody (30 μg/mL) was loaded to the proteins A sensor for 4 min, followed by a short buffering to establish baseline in kinetics buffer. The loaded sensors were then exposed to a series of recombinant LAIR1 concentrations (0.1-200 nM) for kinetic binding detection. Background subtraction was used to correct the sensor drifting. All experiments were performed with shaking at 1,000 rpm. Background wavelength shifts were measured from reference sensors that were loaded only with antibody. ForteBio's data analysis software was used to fit the data to a 1:1 binding model to extract an association rate and dissociation rate. The KD was calculated using the ratio […] using ForteBio's data analysis software 7.0.

Molecule | GFP+% of LAIR1 reporter cells, collagen I coated, no Ab (row collagen I-ctrl) [1] [%] | GFP+% of LAIR1 reporter cells, K562 coculture, no Ab (row Collagen I-ctrl) [2] [%] | EC50 (read off the curve) [3] [ng/mL] | GFP+ of LAIR1 reporter cells, Abs coated [4] [%] | GFP+ of LAIR1 reporter cells, Collagen I coated [4] [%] | GFP+ of LAIR1 reporter cells, Collagen I coated + K562 [4] [%] | GFP+% of LAIR1 reporter cells, collagen I coated, soluble Ab [5] [%] | GFP+% of LAIR1 reporter cells, collagen I coated, soluble Ab and K562 cells [6] [%] | EC50 [7] [nM] | Kd [8] [nM] | koff [8] [s⁻¹] | kon [8] [M⁻¹ s⁻¹]
collagen I (ligand) | 31.3 | 42.5 | – | – | – | – | – | – | – | – | – | –
B1 | – | – | ~20 | > 40 | > 40 | > 40 | 50.4 | 24.6 | 0.12 | – | – | –
B2 | – | – | ~30 | – | – | – | – | – | 0.22 | 0.196 | 4.23e-05 | 216000
B3 | – | – | ~30 | – | – | – | 1.11 | 0.891 | 0.21 | 0.127 | 2.41e-05 | 190000
B4 | – | – | ~20 | > 40 | > 40 | > 40 | 63.2 | 18.7 | 0.04 | – | – | –
B5 | – | – | ~50 | – | – | – | – | – | 0.37 | 0.0337 | 8.02e-06 | 238000
B6 | – | – | ~50 | – | – | – | – | – | 0.3 | 5.58 | 0.00222 | 397000
B7 | – | – | ~8 | – | < 5 | < 5 | 0.924 | 2.11 | 0.06 | – | – | –
B8 | – | – | ~10 | > 40 | < 5 | – | 5.76 | 19 | 0.03 | – | – | –
